The target of assay [1] is T1, human ANG2-RBD-Fc (human, UniProt O15123).
T1 chain: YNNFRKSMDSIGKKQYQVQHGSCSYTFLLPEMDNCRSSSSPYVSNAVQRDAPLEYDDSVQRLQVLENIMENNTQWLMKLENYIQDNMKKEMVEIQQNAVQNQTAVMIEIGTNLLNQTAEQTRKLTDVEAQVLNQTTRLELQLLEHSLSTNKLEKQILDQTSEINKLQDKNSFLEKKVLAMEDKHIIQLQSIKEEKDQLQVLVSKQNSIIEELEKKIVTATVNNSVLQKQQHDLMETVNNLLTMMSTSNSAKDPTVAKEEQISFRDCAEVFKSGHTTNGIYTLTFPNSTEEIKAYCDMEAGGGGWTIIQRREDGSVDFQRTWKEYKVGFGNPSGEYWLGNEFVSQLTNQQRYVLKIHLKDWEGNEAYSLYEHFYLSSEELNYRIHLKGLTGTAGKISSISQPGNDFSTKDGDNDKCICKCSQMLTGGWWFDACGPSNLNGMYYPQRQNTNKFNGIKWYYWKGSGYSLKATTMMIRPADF
The experiment in a line: SPR. On the technique in general: Surface plasmon resonance follows binding to a sensor surface in real time, without labels.

The target in assay [2] is T2, human ANG2 (human, UniProt O15123).
T2 chain: T1 chain
The experiment in a line: competition, Tie2 binding inhibition (pTie2 ELISA).

Assay [3] deals with T1, human ANG2-RBD-Fc. Description: SPR.
Assay [4] has as its target T2, human ANG2. The experiment in a line: competition, Tie2 binding inhibition (pTie2 ELISA).
Assay [5] concerns the target T1, human ANG2-RBD-Fc. The experiment in a line: SPR bivalent.
Assay [6] deals with T1, human ANG2-RBD-Fc. Description: SPR bivalent.
The target of assay [7] is T1, human ANG2-RBD-Fc. Description: SPR.
Assay [8] concerns the target T1, human ANG2-RBD-Fc. Description: SPR.
Assay [9] concerns the target T1, human ANG2-RBD-Fc. Description: SPR.
Assay [10] concerns the target T1, human ANG2-RBD-Fc. The experiment in a line: SPR.
In assay [11] the target is T1, human ANG2-RBD-Fc. Description: SPR.
The target in assay [12] is T2, human ANG2. The experiment in a line: competition, Tie2 binding inhibition (pTie2 ELISA). For orientation: An ELISA detects its analyte on a solid surface through an enzyme-linked reagent.

Positions count from the first letter of the chain named. Read-outs that look alike come from different tables or passages of the source.

Broadly, the EC50 is the concentration at which the effect is half-maximal. A lower EC50 goes with higher potency in that assay.

B1: 0090 (antibody)
chain 1: not shown
chain 2: SYVLTQPPSVSVAPGQTARITCGGNNIGSKSVHWYQQKPGQAPVLVVYDTSDRPSGIPERFSGSNSGNTATLTISRVEAGDEADYYCQVWDSSSDHWVFGGGTKLTVLSSASTKGPSVFPLAPSSKSTSGGTAALGCLVKDYFPEPVTVSWNSGALTSGVHTFPAVLQSSGLYSLSSVVTVPSSSLGTQTYICNVNHKPSNTKVDKKVEPKSC
Take B1: the Kd in the assay with human ANG2-RBD-Fc [1] and with human ANG2-RBD-Fc [3] was 1 nM in each case. Moreover, the response with human ANG2 [2] was half-maximal at 7 nM (EC50).

B2: 0100 (antibody)
chain 1: not shown
chain 2: B1 chain 2
As for B2, in the assay with human ANG2 [4], a half-maximal response (EC50) required 3.2 nM. Moreover, the Kd in the assay with human ANG2-RBD-Fc [5] and with human ANG2-RBD-Fc [6] was 0.008 nM each time.

B3: 0165 ANG2 arm (antibody)
chain 1: not shown
chain 2: B1 chain 2
Take B3: the Kd with human ANG2-RBD-Fc [7] stood at 4 nM.

B4: 0033 (antibody, V domains shown)
VH: not shown
VL: SYVLTQPPSVSVAPGQTARITCGGNNIGSKSVHWYQQKPGQAPVLVVYDDSDRPSGIPERFSGSNSGNTATLTISRVEAGDEADYYCQVWDSSSDHWVFGGGTKLTVLS
B4: the Kd with human ANG2-RBD-Fc [8] is 3 nM.

B5: 0058 (antibody, V domains shown)
VH: not shown
VL: B4 VL
With B5, in the assay with human ANG2-RBD-Fc [9], the Kd came out at 21 nM.

B6: 0025 (antibody, V domains shown)
VH: not shown
VL: B4 VL
Turning to B6, the Kd with human ANG2-RBD-Fc [10] was 38 nM.

B7: 0075 (antibody, V domains shown)
VH: not shown
VL: B4 VL with D50T
Consider B7, for which the Kd with human ANG2-RBD-Fc [1] and in the assay with human ANG2-RBD-Fc [3] was 14 nM each time. In addition, the half-maximal effective concentration (EC50) with human ANG2 [2] was determined as 39 nM.

B8: 0026 (antibody, V domains shown)
VH: not shown
VL: B4 VL
For the molecule B8, in the assay with human ANG2-RBD-Fc [10], the Kd came out at 18 nM.

B9: 0099 (antibody, V domains shown)
VH: not shown
VL: B4 VL
B9 showed an EC50 with human ANG2 [4] of 3.2 nM. In addition, the Kd with human ANG2-RBD-Fc [5] and with human ANG2-RBD-Fc [6] was 0.004 nM each time.

B10: 0042 (antibody, V domains shown)
VH: not shown
VL: B4 VL
The molecule B10 returned a Kd in the assay with human ANG2-RBD-Fc [9] of 4 nM.

B11: 0166 ANG2 arm (antibody, V domains shown)
VH: not shown
VL: B4 VL with D50T
For B11, the Kd with human ANG2-RBD-Fc [7] came to 49 nM.

B12: 0155 (antibody, V domains shown)
VH: not shown
VL: B4 VL with S1Q, Y2P, V3G, D50T, W97Y, G101T, L105V
Molecule B12 gave a Kd in the assay with human ANG2-RBD-Fc [11] of 43 nM.

B13: 0061 (antibody, V domains shown)
VH: not shown
VL: B4 VL with D50T
As to B13, the Kd in the assay with human ANG2-RBD-Fc [9] turned out to be 18 nM.

B14: 0060 (antibody, V domains shown)
VH: not shown
VL: B4 VL with D50T
Molecule B14 displayed a Kd with human ANG2-RBD-Fc [9] of 21 nM.

B15: 0057 (antibody, V domains shown)
VH: not shown
VL: B4 VL
As for B15, the Kd with human ANG2-RBD-Fc [9] came to 29 nM.

B16: 0028 (antibody, V domains shown)
VH: not shown
VL: B4 VL
On to B16, for which the Kd with human ANG2-RBD-Fc [8] was 143 nM.

B17: 0017 (antibody, V domains shown)
VH: not shown
VL: B4 VL
The molecule B17 yielded a Kd in the assay with human ANG2-RBD-Fc [10] of 12 nM.

B18: 0041 (antibody, V domains shown)
VH: not shown
VL: B4 VL
For the molecule B18, the Kd with human ANG2-RBD-Fc [9] and in the assay with human ANG2-RBD-Fc [3] was 1 nM in each case. In addition, it took 5.4 nM to reach a half-maximal effect with human ANG2 [12] (EC50).

B19: 0074 (antibody, V domains shown)
VH: not shown
VL: B4 VL
Molecule B19 yielded a Kd in the assay with human ANG2-RBD-Fc [1] of 16 nM.

B20: 0164 ANG2 arm (antibody, V domains shown)
VH: not shown
VL: B4 VL with S1Q, Y2P, V3G, D50T, W97Y, G101T, L105V
B20 came in with a Kd in the assay with human ANG2-RBD-Fc [7] of 39 nM.

B21: 0027 (antibody, V domains shown)
VH: not shown
VL: B4 VL
Turning to B21, the Kd with human ANG2-RBD-Fc [8] is 69 nM.

B22: 0040 (antibody, V domains shown)
VH: not shown
VL: B4 VL
B22 showed a Kd with human ANG2-RBD-Fc [9] of 23 nM.

B23: 0101 (antibody, V domains shown)
VH: not shown
VL: B4 VL with D50T
Turning to B23, in the assay with human ANG2 [4], a half-maximal effect (EC50) was put at 3 nM. Besides, the Kd with human ANG2-RBD-Fc [5] and with human ANG2-RBD-Fc [6] was 0.007 nM throughout.

B24: 0156 (antibody, V domains shown)
VH: not shown
VL: B4 VL with S1Q, Y2P, V3G, D50T, W97Y, G101T, L105V
On to B24, for which the Kd with human ANG2-RBD-Fc [11] is 5 nM.

B25: 0163 ANG2 arm (antibody, V domains shown)
VH: not shown
VL: B4 VL with S1Q, Y2P, V3G, D50T, W97Y, G101T, L105V
On to B25, for which the Kd with human ANG2-RBD-Fc [7] is 4 nM.

These data come from patent publication US10538585 (dated 2020).
